The text below walks through data of patent publication US20120028880A1, “VEGFR-1/NRP-1 TARGETING PEPTIDES” (priority 2007, published 2012).

The target of assay [1] is NRP-1. Description: competition of CPQPRPLC phage binding to immobilized NRP-1 by soluble peptide.
Assay [2] addresses VEGFR-1. The assay is described as follows: competition of CPQPRPLC phage binding to immobilized VEGFR-1 by soluble peptide.

Square brackets hold non-standard residues; d marks the D form. Ends that are not written are not given here.

The IC50 is the concentration at which inhibition is half-maximal.

Sequence of NRP-1 (O14786 22-856): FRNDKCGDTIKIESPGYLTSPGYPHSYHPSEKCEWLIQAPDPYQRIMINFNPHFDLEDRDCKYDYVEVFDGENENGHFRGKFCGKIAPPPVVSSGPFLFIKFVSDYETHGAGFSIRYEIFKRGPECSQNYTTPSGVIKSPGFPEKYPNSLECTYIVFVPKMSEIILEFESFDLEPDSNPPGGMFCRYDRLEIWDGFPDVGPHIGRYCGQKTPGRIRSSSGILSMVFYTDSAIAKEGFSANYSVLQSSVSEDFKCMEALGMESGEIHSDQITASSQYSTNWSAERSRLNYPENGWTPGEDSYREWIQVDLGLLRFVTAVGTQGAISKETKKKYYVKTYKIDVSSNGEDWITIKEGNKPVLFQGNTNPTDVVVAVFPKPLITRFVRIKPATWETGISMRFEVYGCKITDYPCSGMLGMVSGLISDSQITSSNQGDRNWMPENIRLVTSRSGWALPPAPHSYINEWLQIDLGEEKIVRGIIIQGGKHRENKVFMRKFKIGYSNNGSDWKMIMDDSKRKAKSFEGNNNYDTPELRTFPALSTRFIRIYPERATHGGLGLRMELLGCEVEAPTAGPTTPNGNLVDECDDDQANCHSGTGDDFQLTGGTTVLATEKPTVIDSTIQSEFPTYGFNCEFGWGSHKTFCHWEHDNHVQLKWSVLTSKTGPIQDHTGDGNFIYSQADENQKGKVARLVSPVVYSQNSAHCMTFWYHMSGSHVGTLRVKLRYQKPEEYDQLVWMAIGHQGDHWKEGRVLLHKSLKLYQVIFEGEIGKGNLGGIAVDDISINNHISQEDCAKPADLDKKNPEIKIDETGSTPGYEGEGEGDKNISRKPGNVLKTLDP
Sequence of VEGFR-1 (P17948 27-758): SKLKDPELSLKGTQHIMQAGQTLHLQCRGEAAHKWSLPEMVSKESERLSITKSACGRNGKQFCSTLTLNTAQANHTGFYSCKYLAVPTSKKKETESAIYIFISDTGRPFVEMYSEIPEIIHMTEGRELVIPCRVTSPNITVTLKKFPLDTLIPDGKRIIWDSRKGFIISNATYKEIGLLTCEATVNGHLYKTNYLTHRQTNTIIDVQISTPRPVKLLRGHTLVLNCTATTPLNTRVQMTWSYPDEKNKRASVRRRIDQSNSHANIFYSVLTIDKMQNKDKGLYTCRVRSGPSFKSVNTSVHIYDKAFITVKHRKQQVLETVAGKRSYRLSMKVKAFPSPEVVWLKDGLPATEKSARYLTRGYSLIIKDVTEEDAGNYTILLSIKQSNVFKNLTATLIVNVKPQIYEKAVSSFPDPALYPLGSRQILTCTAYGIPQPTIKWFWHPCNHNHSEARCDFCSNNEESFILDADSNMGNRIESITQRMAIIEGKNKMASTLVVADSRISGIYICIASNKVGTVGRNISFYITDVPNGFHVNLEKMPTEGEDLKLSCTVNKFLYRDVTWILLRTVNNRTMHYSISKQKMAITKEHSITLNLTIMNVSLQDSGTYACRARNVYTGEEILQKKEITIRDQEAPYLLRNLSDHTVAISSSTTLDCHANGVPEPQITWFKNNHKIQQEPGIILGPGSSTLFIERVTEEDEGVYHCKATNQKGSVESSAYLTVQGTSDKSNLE

As for [dL]-[dP]-[dR], the half-inhibitory concentration (IC50) in assay [1] and in assay [2] was 1 to 10 pM each time.
